Molecular target: T1, extracellular domain of human BCMA (human, UniProt Q02223 1-54)
T1 construct: amine-linked to Octet AR2G tips; also called hsBCMA; BCMA (human)
T1 sequence: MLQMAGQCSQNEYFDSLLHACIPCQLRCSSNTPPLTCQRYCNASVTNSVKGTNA
Assay: Octet BLI; Fab 200 nM

B1: AB200-R1H26-R2Vk29 (Fab, V domains shown)
VH: QVQLVQSGAEVKKPGSSVKVSCKASGGSFSNYWMHWVRQAPGQGLEWMGATYRIHSDTFYNQKFKGRVTITADKSTSTAYMELSSLRSEDTAVYYCARGAIYHGYDVLDNWGQGTLVTVSS
VL: DIQMTQSPSSLSASVGDRVTITCRASQSISSYLNWYQQKPGKAPKLLIYATSNLQIGVPSRFSGSGSGTDFTLTISSLQPEDFATYYCQQYRRLPWSFGQGTKLEIKR
For B1, the Kd was 1.18 nM.

B2: AB200-R1H26-R2Vk30 (Fab, V domains shown)
VH: QVQLVQSGAEVKKPGSSVKVSCKASGGSFSNYWMHWVRQAPGQGLEWMGATYRIHSDTFYNQKFKGRVTITADKSTSTAYMELSSLRSEDTAVYYCARGAIYHGYDVLDNWGQGTLVTVSS
VL: DIQMTQSPSSLSASVGDRVTITCRASQSISSYLNWYQQKPGKAPKLLIYATSNLQIGVPSRFSGSGSGTDFTLTISSLQPEDFATYYCQQYRRIPWTFGQGTKLEIKR
With B2 the Kd was 1.74 nM.

B3: AB200-R1H26-R2Vk31 (Fab, V domains shown)
VH: QVQLVQSGAEVKKPGSSVKVSCKASGGSFSNYWMHWVRQAPGQGLEWMGATYRIHSDTFYNQKFKGRVTITADKSTSTAYMELSSLRSEDTAVYYCARGAIYHGYDVLDNWGQGTLVTVSS
VL: DIQMTQSPSSLSASVGDRVTITCRASQSISSYLNWYQQKPGKAPKLLIYATSNLQIGVPSRFSGSGSGTDFTLTISSLQPEDFATYYCQQFRRLPWTFGQGTKLEIKR
For B3, the Kd was 1.1 nM.

B4: AB200-R1H26-R2Vk32 (Fab, V domains shown)
VH: QVQLVQSGAEVKKPGSSVKVSCKASGGSFSNYWMHWVRQAPGQGLEWMGATYRIHSDTFYNQKFKGRVTITADKSTSTAYMELSSLRSEDTAVYYCARGAIYHGYDVLDNWGQGTLVTVSS
VL: DIQMTQSPSSLSASVGDRVTITCRASQSISSYLNWYQQKPGKAPKLLIYATSNLQIGVPSRFSGSGSGTDFTLTISSLQPEDFATYYCQQYRKIPWSFGQGTKLEIKR
B4 gave a Kd of 1.93 nM.

B5: AB200-R1H26-R2Vk33 (Fab, V domains shown)
VH: QVQLVQSGAEVKKPGSSVKVSCKASGGSFSNYWMHWVRQAPGQGLEWMGATYRIHSDTFYNQKFKGRVTITADKSTSTAYMELSSLRSEDTAVYYCARGAIYHGYDVLDNWGQGTLVTVSS
VL: DIQMTQSPSSLSASVGDRVTITCRASQSISSYLNWYQQKPGKAPKLLIYATSNLQIGVPSRFSGSGSGTDFTLTISSLQPEDFATYYCQQFRKIPWTFGQGTKLEIKR
B5 gave a Kd of 1.74 nM.

B6: AB200-R1H26-R2Vk34 (Fab, V domains shown)
VH: QVQLVQSGAEVKKPGSSVKVSCKASGGSFSNYWMHWVRQAPGQGLEWMGATYRIHSDTFYNQKFKGRVTITADKSTSTAYMELSSLRSEDTAVYYCARGAIYHGYDVLDNWGQGTLVTVSS
VL: DIQMTQSPSSLSASVGDRVTITCRASQSISSYINWYQQKPGKAPKLLIYATSNLQSGVPSRFSGSGSGTDFTLTISSLQPEDFATYYCQQYRRLPWSFGQGTKLEIKR
Binder B6 has a Kd of 1.55 nM.

B7: AB200-R1H26-R2Vk35 (Fab, V domains shown)
VH: QVQLVQSGAEVKKPGSSVKVSCKASGGSFSNYWMHWVRQAPGQGLEWMGATYRIHSDTFYNQKFKGRVTITADKSTSTAYMELSSLRSEDTAVYYCARGAIYHGYDVLDNWGQGTLVTVSS
VL: DIQMTQSPSSLSASVGDRVTITCRASQSISSYINWYQQKPGKAPKLLIYATSNLQSGVPSRFSGSGSGTDFTLTISSLQPEDFATYYCQQYRRIPWTFGQGTKLEIKR
B7 gave a Kd of 1.76 nM.

B8: AB200-R1H26-R2Vk36 (Fab, V domains shown)
VH: QVQLVQSGAEVKKPGSSVKVSCKASGGSFSNYWMHWVRQAPGQGLEWMGATYRIHSDTFYNQKFKGRVTITADKSTSTAYMELSSLRSEDTAVYYCARGAIYHGYDVLDNWGQGTLVTVSS
VL: DIQMTQSPSSLSASVGDRVTITCRASQSISSYINWYQQKPGKAPKLLIYATSNLQSGVPSRFSGSGSGTDFTLTISSLQPEDFATYYCQQFRRLPWTFGQGTKLEIKR
B8 showed a Kd of 1.67 nM.

B9: AB200-R1H26-R2Vk37 (Fab, V domains shown)
VH: QVQLVQSGAEVKKPGSSVKVSCKASGGSFSNYWMHWVRQAPGQGLEWMGATYRIHSDTFYNQKFKGRVTITADKSTSTAYMELSSLRSEDTAVYYCARGAIYHGYDVLDNWGQGTLVTVSS
VL: DIQMTQSPSSLSASVGDRVTITCRASQSISSYINWYQQKPGKAPKLLIYATSNLQSGVPSRFSGSGSGTDFTLTISSLQPEDFATYYCQQYRKIPWSFGQGTKLEIKR
In the case of B9, the Kd is reported as 2.3 nM.

B10: AB200-R1H26-R2Vk38 (Fab, V domains shown)
VH: QVQLVQSGAEVKKPGSSVKVSCKASGGSFSNYWMHWVRQAPGQGLEWMGATYRIHSDTFYNQKFKGRVTITADKSTSTAYMELSSLRSEDTAVYYCARGAIYHGYDVLDNWGQGTLVTVSS
VL: DIQMTQSPSSLSASVGDRVTITCRASQSISSYINWYQQKPGKAPKLLIYATSNLQSGVPSRFSGSGSGTDFTLTISSLQPEDFATYYCQQFRKIPWTFGQGTKLEIKR
With B10 the Kd was 2.85 nM.

B11: AB200-R1H26-R2Vk39 (Fab, V domains shown)
VH: QVQLVQSGAEVKKPGSSVKVSCKASGGSFSNYWMHWVRQAPGQGLEWMGATYRIHSDTFYNQKFKGRVTITADKSTSTAYMELSSLRSEDTAVYYCARGAIYHGYDVLDNWGQGTLVTVSS
VL: DIQMTQSPSSLSASVGDRVTITCRASQSISSYINWYQQKPGKAPKLLIYATSNIQSGVPSRFSGSGSGTDFTLTISSLQPEDFATYYCQQYRRLPWSFGQGTKLEIKR
In the case of B11, the Kd is reported as 1.83 nM.

B12: AB200-R1H26-R2Vk40 (Fab, V domains shown)
VH: QVQLVQSGAEVKKPGSSVKVSCKASGGSFSNYWMHWVRQAPGQGLEWMGATYRIHSDTFYNQKFKGRVTITADKSTSTAYMELSSLRSEDTAVYYCARGAIYHGYDVLDNWGQGTLVTVSS
VL: DIQMTQSPSSLSASVGDRVTITCRASQSISSYINWYQQKPGKAPKLLIYATSNIQSGVPSRFSGSGSGTDFTLTISSLQPEDFATYYCQQYRRIPWTFGQGTKLEIKR
B12 was tested, and the Kd was 2.34 nM.

B13: AB200-R1H26-R2Vk41 (Fab, V domains shown)
VH: QVQLVQSGAEVKKPGSSVKVSCKASGGSFSNYWMHWVRQAPGQGLEWMGATYRIHSDTFYNQKFKGRVTITADKSTSTAYMELSSLRSEDTAVYYCARGAIYHGYDVLDNWGQGTLVTVSS
VL: DIQMTQSPSSLSASVGDRVTITCRASQSISSYINWYQQKPGKAPKLLIYATSNIQSGVPSRFSGSGSGTDFTLTISSLQPEDFATYYCQQFRRLPWTFGQGTKLEIKR
In the case of B13, the Kd is reported as 1.87 nM.

B14: AB200-R1H26-R2Vk42 (Fab, V domains shown)
VH: QVQLVQSGAEVKKPGSSVKVSCKASGGSFSNYWMHWVRQAPGQGLEWMGATYRIHSDTFYNQKFKGRVTITADKSTSTAYMELSSLRSEDTAVYYCARGAIYHGYDVLDNWGQGTLVTVSS
VL: DIQMTQSPSSLSASVGDRVTITCRASQSISSYINWYQQKPGKAPKLLIYATSNIQSGVPSRFSGSGSGTDFTLTISSLQPEDFATYYCQQYRKIPWSFGQGTKLEIKR
Work on B14 yielded a Kd of 2.42 nM.

B15: AB200-R1H26-R2Vk43 (Fab, V domains shown)
VH: QVQLVQSGAEVKKPGSSVKVSCKASGGSFSNYWMHWVRQAPGQGLEWMGATYRIHSDTFYNQKFKGRVTITADKSTSTAYMELSSLRSEDTAVYYCARGAIYHGYDVLDNWGQGTLVTVSS
VL: DIQMTQSPSSLSASVGDRVTITCRASQSISSYINWYQQKPGKAPKLLIYATSNIQSGVPSRFSGSGSGTDFTLTISSLQPEDFATYYCQQFRKIPWTFGQGTKLEIKR
For B15, the Kd was 3.23 nM.

B16: AB200-R1H26-R2Vk44 (Fab, V domains shown)
VH: QVQLVQSGAEVKKPGSSVKVSCKASGGSFSNYWMHWVRQAPGQGLEWMGATYRIHSDTFYNQKFKGRVTITADKSTSTAYMELSSLRSEDTAVYYCARGAIYHGYDVLDNWGQGTLVTVSS
VL: DIQMTQSPSSLSASVGDRVTITCRASQSISSYINWYQQKPGKAPKLLIYATSNLQIGVPSRFSGSGSGTDFTLTISSLQPEDFATYYCQQYRRLPWSFGQGTKLEIKR
In the case of B16, the Kd is reported as 1.28 nM.

B17: AB200-R1H26-R2Vk45 (Fab, V domains shown)
VH: QVQLVQSGAEVKKPGSSVKVSCKASGGSFSNYWMHWVRQAPGQGLEWMGATYRIHSDTFYNQKFKGRVTITADKSTSTAYMELSSLRSEDTAVYYCARGAIYHGYDVLDNWGQGTLVTVSS
VL: DIQMTQSPSSLSASVGDRVTITCRASQSISSYINWYQQKPGKAPKLLIYATSNLQIGVPSRFSGSGSGTDFTLTISSLQPEDFATYYCQQYRRIPWTFGQGTKLEIKR
B17 showed a Kd of 1.57 nM.

B18: AB200-R1H26-R2Vk46 (Fab, V domains shown)
VH: QVQLVQSGAEVKKPGSSVKVSCKASGGSFSNYWMHWVRQAPGQGLEWMGATYRIHSDTFYNQKFKGRVTITADKSTSTAYMELSSLRSEDTAVYYCARGAIYHGYDVLDNWGQGTLVTVSS
VL: DIQMTQSPSSLSASVGDRVTITCRASQSISSYINWYQQKPGKAPKLLIYATSNLQIGVPSRFSGSGSGTDFTLTISSLQPEDFATYYCQQFRRLPWTFGQGTKLEIKR
Binder B18 has a Kd of 1.35 nM.

B19: AB200-R1H26-R2Vk47 (Fab, V domains shown)
VH: QVQLVQSGAEVKKPGSSVKVSCKASGGSFSNYWMHWVRQAPGQGLEWMGATYRIHSDTFYNQKFKGRVTITADKSTSTAYMELSSLRSEDTAVYYCARGAIYHGYDVLDNWGQGTLVTVSS
VL: DIQMTQSPSSLSASVGDRVTITCRASQSISSYINWYQQKPGKAPKLLIYATSNLQIGVPSRFSGSGSGTDFTLTISSLQPEDFATYYCQQYRKIPWSFGQGTKLEIKR
B19 was tested, and the Kd was 1.73 nM.

B20: AB200-R1H26-R2Vk48 (Fab, V domains shown)
VH: QVQLVQSGAEVKKPGSSVKVSCKASGGSFSNYWMHWVRQAPGQGLEWMGATYRIHSDTFYNQKFKGRVTITADKSTSTAYMELSSLRSEDTAVYYCARGAIYHGYDVLDNWGQGTLVTVSS
VL: DIQMTQSPSSLSASVGDRVTITCRASQSISSYINWYQQKPGKAPKLLIYATSNLQIGVPSRFSGSGSGTDFTLTISSLQPEDFATYYCQQFRKIPWTFGQGTKLEIKR
In the case of B20, the Kd is reported as 2.31 nM.

B21: AB200-R1H26-R2Vk2 (Fab, V domains shown)
VH: QVQLVQSGAEVKKPGSSVKVSCKASGGSFSNYWMHWVRQAPGQGLEWMGATYRIHSDTFYNQKFKGRVTITADKSTSTAYMELSSLRSEDTAVYYCARGAIYHGYDVLDNWGQGTLVTVSS
VL: DIQMTQSPSSLSASVGDRVTITCRASQSISSYINWYQQKPGKAPKLLIYAASSLQSGVPSRFSGSGSGTDFTLTISSLQPEDFATYYCQQFRKLPWSFGQGTKLEIKR
Work on B21 yielded a Kd of 2.37 nM.

B22: AB200-R1H26-R2Vk14 (Fab, V domains shown)
VH: QVQLVQSGAEVKKPGSSVKVSCKASGGSFSNYWMHWVRQAPGQGLEWMGATYRIHSDTFYNQKFKGRVTITADKSTSTAYMELSSLRSEDTAVYYCARGAIYHGYDVLDNWGQGTLVTVSS
VL: DIQMTQSPSSLSASVGDRVTITCRASQSISSYINWYQQKPGKAPKLLIYAASSLQSGVPSRFSGSGSGTDFTLTISSLQPEDFATYYCQQYRRLPWSFGQGTKLEIKR
In the case of B22, the Kd is reported as 2.52 nM.

Source: patent US20240327535A1 (EISAI R AND D MANAGEMENT, published 2024)
